Test results: patent publication US20250361296A1 (BIOCYTOGEN PHARMACEUTICALS BEIJING, published 2025)

T1: human SIGLEC15 on CHO-S-hSIGLEC15 cells (human, UniProt Q6ZMC9 20-328)
T1 sequence: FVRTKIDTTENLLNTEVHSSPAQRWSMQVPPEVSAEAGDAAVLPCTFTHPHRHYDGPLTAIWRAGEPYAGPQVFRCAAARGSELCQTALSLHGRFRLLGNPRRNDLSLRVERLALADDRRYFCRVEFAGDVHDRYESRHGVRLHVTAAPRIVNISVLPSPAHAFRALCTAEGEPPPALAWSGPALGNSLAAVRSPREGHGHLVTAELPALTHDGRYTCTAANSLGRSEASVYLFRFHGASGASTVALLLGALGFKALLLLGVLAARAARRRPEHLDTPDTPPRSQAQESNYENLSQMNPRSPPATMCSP

T2: His-tagged mouse SIGLEC15 protein (mSIGLEC15-His, ACROBiosystems Inc., Cat #: SG5-M52H7) (mouse)
T2 construct: Bought protein; not shown: His tag
T2 chain: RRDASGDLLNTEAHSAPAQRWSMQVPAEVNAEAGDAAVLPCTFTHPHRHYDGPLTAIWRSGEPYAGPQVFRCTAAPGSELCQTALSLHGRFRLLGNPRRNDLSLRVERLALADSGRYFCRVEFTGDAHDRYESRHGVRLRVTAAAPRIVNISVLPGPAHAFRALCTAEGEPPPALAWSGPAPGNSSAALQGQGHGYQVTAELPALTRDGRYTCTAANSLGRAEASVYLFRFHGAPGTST

T3: His-tagged human SIGLEC15 protein (hSIGLEC15-His, Novoprotein Scientific Inc., Cat #: CW37) (human, UniProt Q6ZMC9 20-263)
T3 construct: Bought protein; not shown: His tag
T3 sequence: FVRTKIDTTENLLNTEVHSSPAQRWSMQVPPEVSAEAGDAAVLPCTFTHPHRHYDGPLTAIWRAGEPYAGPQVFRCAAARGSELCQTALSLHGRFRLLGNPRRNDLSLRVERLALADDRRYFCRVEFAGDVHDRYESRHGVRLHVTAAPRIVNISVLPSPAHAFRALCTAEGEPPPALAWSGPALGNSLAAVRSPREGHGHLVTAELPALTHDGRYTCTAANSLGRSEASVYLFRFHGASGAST


Key:
[1] = target: T1, human SIGLEC15 on CHO-S-hSIGLEC15 cells; test: flow cytometry (MFI) on CHO-S-hSIGLEC15 cells; antibody sample: 25° C. 7 d
Experimental: (§1) In the activity detection experiment, 30 μL of CHO-S-hSIGLEC15 cells were added to the culture plate, and the antibody to be tested was added in a gradient dilution ([…]), and incubated at 4° C. for 30 min. The plate was washed with PBS, and diluted secondary antibody Anti-hIgG-Fc-Alex Flour 647 (RL1-H) (1:2000) was added, incubated at 4° C. for 30 min. The plate was washed once with PBS and the cells were resuspended for flow cytometry detection. MFI value was derived by FlowJo 7.6.1 analysis to calculate EC50.

[2] = target: T1, human SIGLEC15 on CHO-S-hSIGLEC15 cells; test: flow cytometry (MFI) on CHO-S-hSIGLEC15 cells; antibody sample: pH 3.5 0 h
Experimental: as §1

[3] = target: T2, His-tagged mouse SIGLEC15 protein …; test: SPR (Biacore 8K), antibody captured on Protein A chip, His-tagged SIGLEC15 as analyte
Experimental: (§2) Purified anti-SIGLEC15 antibodies was captured on the Protein A chip (Series S Sensor Chip Protein A) for the detection. […] The flow rate was 30 μL/min, the binding and dissociation time were set to 180 s and 600 s, respectively. The chip was regenerated after the last injection of each titration with a glycine solution (pH 2.0) at 30 μL/min for 30 seconds.
(§3) Kinetic association rates (kon) and dissociation rates (koff) were obtained simultaneously by fitting the data globally to a 1:1 Langmuir binding model (Karlsson, R. Roos, H. Fagerstam, L. Petersson, B., 1994. Methods Enzymology 6. 99-110) using Biacore™ 8K Evaluation Software 3.0. Affinities were deduced from the quotient of the kinetic rate constants (KD=koff/kon). As a person of ordinary skill in the art would understand, the same method with appropriate adjustments for parameters (e.g., antibody concentration) was performed for each tested antibody.

[4] = target: T3, His-tagged human SIGLEC15 protein …; test: as above
Experimental: as §2, §3

[5] = target: T1, human SIGLEC15 on CHO-S-hSIGLEC15 cells; test: flow cytometry (MFI) on CHO-S-hSIGLEC15 cells; antibody sample: 40° C. 7 d
Experimental: as §1

[6] = target: T1, human SIGLEC15 on CHO-S-hSIGLEC15 cells; test: flow cytometry (MFI) on CHO-S-hSIGLEC15 cells; antibody sample: freeze 10
Experimental: as §1

[7] = target: T1, human SIGLEC15 on CHO-S-hSIGLEC15 cells; test: flow cytometry (MFI) on CHO-S-hSIGLEC15 cells; antibody sample: 0 d
Experimental: as §1

[8] = target: T1, human SIGLEC15 on CHO-S-hSIGLEC15 cells; test: flow cytometry (MFI) on CHO-S-hSIGLEC15 cells; antibody sample: freeze 1
Experimental: as §1

[9] = target: T1, human SIGLEC15 on CHO-S-hSIGLEC15 cells; test: flow cytometry (MFI) on CHO-S-hSIGLEC15 cells; antibody sample: pH 3.5 6 h
Experimental: as §1

[10] = target: T1, human SIGLEC15 on CHO-S-hSIGLEC15 cells; test: flow cytometry (MFI) on CHO-S-hSIGLEC15 cells; antibody sample: 4° C. 7 d
Experimental: as §1

Binder | EC50 [1] [µg/mL] | EC50 [2] [µg/mL] | Kd [3] [pM] | koff [3] [s⁻¹] | kon [3] [M⁻¹ s⁻¹] | Kd [4] [pM] | koff [4] [s⁻¹] | kon [4] [M⁻¹ s⁻¹] | EC50 [5] [µg/mL] | EC50 [6] [µg/mL] | EC50 [7] [µg/mL] | EC50 [8] [µg/mL] | EC50 [9] [µg/mL] | EC50 [10] [µg/mL]
anti-SIGLEC15 antibody 23F4 (antibody, human IgG1, V domains shown) VH: QVQLQQWGAGLLKPSETLSLTCAVYGGSFSGYFWSWIRQPPGKGLEWIGEINHSGSTNYNPSLKSRVTLSVDTSKNQFSLKLSSVTAADTAVYYCAREGDSSSWGNWFDPWGQGTLVTVSS VL: EIVLTQSPGTLSLSPGERATLSCRASQSVSSSYLAWYQQKPGQAPRFLIYGASSRATGIPDRFSGSGSGTDFTLTISRLEPEDFAVYYCQQFGNSPLTFGGGTKVEIK | 0.106 | 0.148 | 1970 | 0.00126 | 639000 | 0.164 | 6.85e-07 | 4.19e+06 | 0.111 | 0.129 | 0.129 | 0.125 | 0.221 | 0.122
anti-SIGLEC15 antibody 10C9 (antibody, human IgG1, V domains shown) VH: QVQLVQSGAEVKKPGATVKVSCKASGYTFTNYGFSWVRQAPGQGLEWMGWINTYNDNTNYAQKFQGRVTMTTDTSTSTAYMELRSLRSDDTAVYYCARDGLWFGELPHYFDYWGQGTLVTVSS VL: DIQLTQSPLSSPVTLGQPASISCRSSQSLVNSDGETFLSWLQQRPGQPPRLLIYKISNRFSGVPDRFSGSGAGTDFTLKISRVEAEDVGVYYCMQATQFPHTFGQGTKLEIK | 0.65 | 0.44 | 2170 | 0.00253 | 1.17e+06 | 0.0846 | 2.23e-07 | 2.63e+06 | 0.6 | 0.81 | 1.17 | 0.62 | 0.11 | 0.85
